Changes are numbered by the printed parent chain. No end group written: not given here.
How the values were obtained:
[1] = target: podoplanin expressed on brain tumor cells (Homo sapiens, UniProt Q86YL7); test: flow cytometry on cells
[2] = target: T1, biotinylated podoplanin peptide (hpp38-51) (Homo sapiens, UniProt Q86YL7, also: biotin, position not given here); test: SPR
T1 chain: EGGVAMPGAEDDVV

Chain of podoplanin expressed on brain tumor cells (Q86YL7 23-162): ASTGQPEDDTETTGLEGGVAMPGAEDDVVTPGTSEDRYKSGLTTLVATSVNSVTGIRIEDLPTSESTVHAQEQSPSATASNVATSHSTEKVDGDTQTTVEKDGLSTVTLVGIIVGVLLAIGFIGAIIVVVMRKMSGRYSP

B1: NZ-1 monoclonal antibody (antibody, V domains shown)
VH: EVQLVESGGGLVQPGRSLKLSCAASGFTFSNYGMAWVRQTPTKGLEWIASISAGGDKTYYGDSVKGRFSISRDNAKTTHYLQMDSLRSEDTATYYCAKTSRVYFDYWGQGVMVTVSS
VL: QFVLTQPNSVSTNLGSTVKLSCKRSTGNIGSNYVNWYQQHEGRSPTTMIYRDDKRPDGVPDRFSGSIDRSSNSALLTINNVQTEDEADYFCHSYSSGIVFGGGTKLTVL
- binding result [1]: binds

B2: NZ-1-(scdsFv) (scFv, V domains shown)
VH: B1 VH with G44C
VL: B1 VL with G103C
- Ka [2]: 4.8e+07 M⁻¹

Reference: PMC3809846 (International journal of cancer. Journal international du …, 2012)
